Test results reported in the DeepSol protein solubility set.

experiment: soluble on expression in E. coli; label from the status in PepcDB or PDB records

| Sequence | soluble on expression in E. coli |
| --- | --- |
| MARPANTLQSLAELNGKAPSRRQLNIQHWNTAEGARVLFVEARELPMFDLRVTFAAGSSQDGGTPGLAALTNAMLNEGVAGKDVTAIAEGFEGLGADFGNGSYRDMAVASLRSLSAKDKREPALKLFTEVAGKPTFPEDALKRIKNQMLAGFEYEKQNPGKIAGKALFGKLYGDHPYAHPSDGTAESITGISLAQLRAFHAKAYTGGNAVIALVGDLSRAEAEAIAAQVSAGLPKGPALAAPAQPADAKAGLTHIDFPSKQTHLMLAELGIDRQDPDWPALSMGNQILGGGAFGTRLMSEVREKRGLTYGVYSVFSPMQVRGPFMINLQTRAELSEGTLKLVQGILADYLKTGPTQQELDDAKRELAGSFPLSNASNASIVGQLGAIGFYNLPLTWLEDFMQQSQALTVEQVKAAMNKHLSADKLVIVTVGPKVPQKPLEHHHHHH | not soluble |
| MGSDKIHHHHHHMYLAYYGFAEKPFQLKPDPNFFFPSRGHKRAAAYLEYGLSQEDGFIIITGDVGAGKTTLMRYLFQKLRQERVAAAQLVSTRLDPDDALRMVAAAFGLSYEGLSKAALLLELERFMRKCERESTRVLLVVDEAQNLLPQTLEELRMLSNFQSDNRPLLQTFLLGQPEFRRTLLGSQMQQLRQRVIATYHLGPLDQAETRAYIEHRLQKAGWNGSPVLQDEIFEVIHNFSAGIPRKINLFCDRLLIMGCLEELQTLGKAEANEVMLDIQKEFDLAVSPE | not soluble |
| MGSDKIHHHHHHMNSPKNSLYEEKSGHYYNAVNPNLLKHIKKEWKEVLDIGCSSGALGAAIKENGTRVSGIEAFPEAAEQAKEKLDHVVLGDIETMDMPYEEEQFDCVIFGDVLEHLFDPWAVIEKVKPYIKQNGVILASIPNVSHISVLAPLLAGNWTYTEYGLLDKTHIRFFTFNEMLRMFLKAGYSISKVDRVYVDHKMYEPLIEELYGICKKYRLGSGFMAETVVFQYIIEAEKSQL | not soluble |
| MTIGFLGTGKISASMVDGLMRSVFDVPSIILSPRNAKRAEHLSRNYDKVIIAENNQALLDVCDCVFLCLPNQIAEEVLRSLRFRPEQLVVSVLAMAKAAEVEEWINHKVYRAVPLPFVAECKNLTPIYPDHPFLRSLFDALGGTLVLDAEEQFNLFMTAGSLMGVYFNFIETAHKWFITQGLKKQQSADFLAMMFGNLTDEMRKIMDQDCSTSLDFALLEKEFSTKGGTNELLSHCFSHQGGRSALTTALETTLQKINAPFTY | not soluble |
| MGSDKIHHHHHHMSQFVVDSSFWSLFPDAKIGVLLLKDYKTPAQSPDELVKLLEESNGIAQKFLTEDTFSENEVIRTYRQAYQKFKTKKGARSSIEALLKRSTSDRPVTTISPLVDIYNAASLRFGLPCGAEDLDTFVGNLQLTVTEGGDEFYLIGDETNNPTLPGEVCYKDDKGAVCRCFNWRDGERTMITDETKNAFLVMELVNSDRVEDLENALDFISQQAETFLGVVPEKYLLDCDRPGIAL | not soluble |
| GSHMPVVHVIDVESGNLQSLTNAIEHLGYEVQLVKSPKDFNISGTSRLILPGVGNYGHFVDNLFNRGFEKPIREYIESGKPIMGICVGLQALFAGSVESPKSTGLNYIDFKLSRFDDSEKPVPEIGWNSCIPSENLFFGLDPYKRYYFVHSFAAILNSEKKKNLENDGWKIAKAKYGSEEFIAAVNKNNIFATQFHPEKSGKAGLNVIENFLKQQSPPIPNYSAEEKELLMNDYSNYGLTRRIIACLDVRTNDQGDLVVTKGDQYDVREKSDGKGVRNLGKPVQLAQKYYQQGADEVTFLNITSFRDCPLKDTPMLEVLKQAAKTVFVPLTVGGGIKDIVDVDGTKIPALEVASLYFRSGADKVSIGTDAVYAAEKYYELGNRGDGTSPIETISKAYGAQAVVISVDPKRVYVNSQADTKNKVFETEYPGPNGEKYCWYQCTIKGGRESRDLGVWELTRACEALGAGEILLNCIDKDGSNSGYDLELIEHVKDAVKIPVIASSGAGVPEHFEEAFLKTRADACLGAGMFHRGEFTVNDVKEYLLEHGLKVRMDEE | soluble |
| MGSDKIHHHHHHENLYFQGMWEIYDAMINGIPEDFLVDELVCGTTHSVIRSGNGVGLGPNRPFETRMPMLTQNLLGLPLRVAAGCVKSWNYVEASIGLAAINAYYNNPQVAREHGVIFSDAKRVEDRMNDPFIMSQNEVKGKKVGVVGHFPHLESLLEPICDLSILEWSPEEGDYPLPASEFILPECDYVYITCASVVDKTLPRLLELSRNARRITLVGPGTPLAPVLFEHGLQELSGFMVKDNARAFRIVAGAEKVKIYSAGQKVTIKK | soluble |
| MGSDKIHHHHHHMTQPPQSLQIKLANPRGFCAGVDRAISIVERALELFSPPIYVRHEVVHNRYVVQNLKDRGAVFVDELDQVPDDSIVIFSAHGVSQAVRAEAKKRGLRVFDATCPLVTKVHLQVTRASRKGIECILIGHAGHPEVEGTMGQYDNPEGGVLLVESPADVEALVVKDPDNLCFVTQTTLSMDDTADVIAALQKRFPSIQGPRKDDICYATQNRQDAVRNVADDVDLFIVVGSKNSSNSNRLMELAIKKGTQSYLVDNADDIKPEWFNDIEKVAVTAGASAPEVLVQQVIDAIAKLAPSVITEVEGRKEDTVFAVPAELR | not soluble |
| MGSDKIHHHHHHMPTKRGQIRHDPSSKKATTMDLNRRPVASLWIGESLQYLNQLCLKSHLRHGHPVTLYCTDKVTNAPEGVVVKPATDIMDIPMNIVEQTSASFLSNVFRYKMIQQTGAIWIDCDAFCHAPFPDEWEHIYAGHGMRGALNCGVVGIPQQGELMDQLLDYYDNLPDYPPWWNPRQRKRMDRQDSNLPLAVRIYKTERTAFGPQAFTHFARETGDIDRAMTSDVLYPVPFQLNDIFYDPHGRVEGWFSENTRSVHLYTNGTKPWWRKNPPLENSYAWRMCQEVGITPEDALE | not soluble |
| MHLTREVNIMSILSAVSRVINNFSTEIKNRVVEVGSNLKKSTEEFIGEVVIKAAVNRLKQGMLNALSSSNDTTKDNGNDLSTNSPDIEDVSAPTLSSKKKTEANTTLVGSTGIMQKLLGNIGVNSEQSIEVLSKHFNGAVERFTQDVSKAANEAVCEKIKSIQPEDVVKGINSLIGNTLKVDSESGDTTLSFKLESAVQILGVILAAMGMLMFASQTKSTEQKTLEIEHLPTEEIQPPSLAIH | not soluble |
| MIERVKGTRDFLPEDMAKRRWVFEKIREVFEAYGFKEILTPVMEYTKLFQLRSGEEVVKQLYAFKDKGGRDVSLRPDMTSSVARLYVNSFQMAPKPIKWYYIANMFRYEEPQSGRYREFWQAGVELIGSDKVEADAEVIALFVESYLSTGLRDFTVNIGDRILLDEFAGMLGVSDDIGLMRIIDKRDKLSQEEFINLLKEFGLGESEIEKVLELVEIKGRPDNVLPLAEELFKSKKAKEEISKLYKLTDLLEWYGVKDWIRIDLGIARGFDYYTSIVFEAISPNELGIGSIGGGGRYDNLIEIFGGKPTPATGFAIGIERLLPILEWKGLIPKPQTGPEVFVIPLKDMEKVAINIAVKLRREKIKTDIELSGRKLGKALDYANRVGAKLVIIVGKRDVERGVVTIRDMESGEQYNVSLNEIVDKVKNLLKR | soluble |
| MIQNDYSIYQYHVEFEPTVDSKATRENMLRQPSVTVEIGKHFVFDGMILYLKEEWDQNQMIEVQHPNDNSLICIRFKKTNRFLVDDPQTINIFNTIIRRSFDAMKLTQIGRNYFDWDNSRALRKELRSCQNNRQRVQEKMNEVYGGSTIITRYNNKLHRFTRLDNEITPLSKFQKDGEQIILKEYFKNQYDIDITDDEQFIIISEGKPKQPGEPPQVNYIVPELCFPTGLTDEMRKDFKMMKEIAKHTRMSPQQRLDETRKLITKLSQNQTMMECFQYWGISLGQDLANVQARVLKSEPLQGKRQYEGKQAEWARGVKECGIYRGSNMTNWIVIGPGSGNSGLLAQKFIAEARNLGRTLQVQLGEPMCVKINGISPNDYLEGLKAAIKSVDGEEIHMLVVMLADDNKTRYDSLKKYLCVECPIPNQCVNLRTLAGKSKDGGENKNLGSIVLKIVLQMICKTGGALWKVNIPLKSTMIVGYDLYHDSTLKGKTVGACVSTTSNDFTQFYSQTRPHENPTQLGNNLTHFVRKSLKQYYDNNDKTLPSRLILYRDGAGDGQIPYIKNTEVKLVRDACDAVTDKAAELSNKVQEKIKLAFIIVTKRVNMRILKQGSSSKSAINPQPGTVVDTTVTRPERMDFYLVPQFVNQGTVTPVSYNIIHDDTGLGPDKHQQLAFKLCHLYYNWQGTVRVPAPCQYAHKLAFLTAQSLHDDANGYLRDKLFFL | not soluble |
| MTSVTDRSAHSAERSTEHTIDIHTTAGKLAELHKRREESLHPVGEDAVEKVHAKGKLTARERIYALLDEDSFVELDALAKHRSTNFNLGEKRPLGDGVVTGYGTIDGRDVCIFSQDATVFGGSLGEVYGEKIVKVQELAIKTGRPLIGINDGAGARIQEGVVSLGLYSRIFRNNILASGVIPQISLIMGAAAGGHVYSPALTDFVIMVDQTSQMFITGPDVIKTVTGEEVTMEELGGAHTHMAKSGTAHYAASGEQDAFDYVRELLSYLPPNNSTDAPRYQAAAPTGPIEENLTDEDLELDTLIPDSPNQPYDMHEVITRLLDDEFLEIQAGYAQNIVVGFGRIDGRPVGIVANQPTHFAGCLDINASEKAARFVRTCDCFNIPIVMLVDVPGFLPGTDQEYNGIIRRGAKLLYAYGEATVPKITVITRKAYGGAYCVMGSKDMGCDVNLAWPTAQIAVMGASGAVGFVYRQQLAEAAANGEDIDKLRLRLQQEYEDTLVNPYVAAERGYVDAVIPPSHTRGYIGTALRLLERKIAQLPPKKHGNVPL | soluble |
| IDEKPSDLLLDRIESRFNFDVPRGEGHNTVQAIKAMEEGQAKVFIGLGGNFAQATPDTERTHNAMRNCNLTVHISTKLNRSHLVTGKDALILPCLGRTEIDQQATGPQGVTVEDTFSMVHISFGQLKPRSEHLRSEPAIIAGIANATLGAKPIDWLWAIEDYDRIRDLIADTIPGFTDFNHKLKHPGGFHLVNPAAERRWNTPSGKAQFSSSELPKQLISEAILEKGQKPDLILQTMRSHDQYNTTLYGLNDRYRGVFGMREVLFINEADIRKLGFEPGDKVDMVSLWEDGVERRVSGFTLVAYDVPAGQAAAYYPETNPLVPLDSYGDRTFTPTSKFIAIKLEKSTSNKIALVETE | not soluble |
| MDLEFGRFPIFSILEDMLEAPEEQTEKTRNNPSRAYMRDAKAMAATPADVIEHPDAYVFAVDMPGIKGDEIQVQIENENVLVVSGKRQRDNKENEGVKFVRMERRMGKFMRKFQLPDNADLEKISAACNDGVLKVTIPKLPPPEPKKPKTIQVQVA | soluble |
| GANRTLIVTTILEEPYVMYRKSDKPLYGNDRFEGYCLDLLKELSNILGFLYDVKLVPDGKYGAQNDKGEWNGMVKELIDHRADLAVAPLTITYVREKVIDFSKPFMTLGISILYRKGTPIDSADDLAKQTKIEYGAVRDGSTMTFFKKSKISTYEKMWAFMSSRQQSALVKNSDEGIQRVLTTDYALLMESTSIEYVTQRNCNLTQIGGLIDSKGYGVGTPIGSPYRDKITIAILQLQEEGKLHMMKEKWWRGNGCPE | soluble |
| MGSDKIHHHHHHMPQGKANPFNINTSVKNGTVAKVGSISPTSFLNSVDPNATEVDVGGEPFNQKEFLELALNDDFLKGLLLDEEGNIKPEVAGEATIQGLEQWHQNDAGLEVDDTDTLGLMFNYYLNDNVSLQFIGGIPPKVDIKGQGEILAPLSGVALSPNELVKILFPNGITLGQAVPITNLGNKPKAASVRAWTPAIEAQYQFGKSGVNKFRPYLGVGLMYAHFNDIKLNDEIRSDLISAGHMIQNVLDGKAGAALDRKESSGNMVVKVDADDAIAPIFTAGFTYDFNDSWYTVASVSYAKLNNRTQIDVINQNTGARLIHGSTKVDIDPIITYLGVGYRF | not soluble |
